Measurements as given in the supplement of paper PMC9732359.
± gives the uncertainty stated by the source.

Assay: protein stability index of a GFP-peptide fusion (yeast GPS) (PSI 1-4); higher = more stable; sorted into four equal gates, so the index is relative within each strain
Method in brief: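 For each peptide, the protein stability index sums the read frequency in every gate after multiplying it by the gate number. Read frequencies came from plasmids that were PCR-amplified from each gate and Illumina-sequenced, with reads assigned to strains by barcodes. The gates were four equal bins of GFP/Cherry fluorescence ratio applied to mid-log yeast in leucine-free medium carrying a pooled library of tiled 17-residue yeast protein peptides fused downstream of GFP on a Cherry-expressing plasmid.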

| Sequence | protein stability index (doa10∆) | protein stability index (pdr5∆) | protein stability index (san1∆) | protein stability index (ubr1∆) |
| --- | --- | --- | --- | --- |
| DDPTQLVSRGGCGNTQP [RPO21] | 3.18 ± 0.12 | 2.55 ± 0.19 | 2.97 ± 0.11 | 3.04 ± 0.088 |
| AQFAGRASIEYYVGQVM [DIS3] | 3.46 ± 0.28 | 2.84 ± 0.2 | 2.64 ± 0.17 | – |
| MAVGKNKRLSRGKKGLK [RPS1B] | 1.49 ± 0.13 | 1.62 ± 0.083 | 1.64 ± 0.14 | 1.46 ± 0.12 |
| QDRIQDVKLVLASNFDN [MED1] | 2.56 ± 0.057 | 2.67 ± 0.06 | 1.88 ± 0.08 | 2.21 ± 0.036 |
| DKQARKQRTKKEDKSEA [SNF2] | 3.64 ± 0.14 | 3.54 ± 0.13 | 3.25 ± 0.077 | 3.29 ± 0.11 |
| FDPVYTTVITVFLEFSL [YML103C/NUP188] | 1.45 ± 0.043 | 1.69 ± 0.043 | 1.8 ± 0.072 | 1.62 ± 0.023 |
| TLVKGPKEPRLKSQMDT [SKI6] | 3.09 ± 0.25 | 3.05 ± 0.13 | – | 3.33 ± 0.091 |
| TSNDASNKKETKKKRKP [ITC1] | 3.08 ± 0.089 | 3.25 ± 0.075 | 3.21 ± 0.088 | 3.29 ± 0.074 |
| IGISIVGRFSTISSADF [ECM29] | 2.81 ± 0.24 | 2.54 ± 0.092 | 3.12 ± 0.3 | 2.26 ± 0.19 |
| PSFGKRHNKSHTLCNRC [RPL37A] | 2.54 ± 0.1 | 2.84 ± 0.08 | 2.97 ± 0.12 | 2.68 ± 0.21 |
| SSPYAAMLAAQDVAAKC [RPS14B] | 2.14 ± 0.055 | 1.42 ± 0.055 | 1.3 ± 0.082 | 1.73 ± 0.05 |
| TRDEETTKLAFLVEYEG [SIR4] | 3.02 ± 0.14 | 3.06 ± 0.095 | – | 2.96 ± 0.13 |
| AADILCELQVETYGSME [RPN5] | 3.15 ± 0.1 | 3.34 ± 0.075 | 3.27 ± 0.1 | 3.18 ± 0.23 |
| KLREPVARFLHFNGIRR [ITC1] | 2.04 ± 0.088 | 2.05 ± 0.063 | 2.5 ± 0.083 | 2.09 ± 0.046 |
| TEGEPKKKRGFLGLFGR [SRP68] | 3.17 ± 0.094 | 3.46 ± 0.093 | 2.92 ± 0.068 | 3.01 ± 0.06 |
| HSKRELDSGDDQPQSSE [BRR2] | 3.33 ± 0.073 | 3.38 ± 0.069 | 3.18 ± 0.057 | 3.19 ± 0.051 |
| IPFPDHNQSPRNTYQSA [RPB2] | 2.97 ± 0.083 | 3.06 ± 0.067 | 3.22 ± 0.056 | 2.78 ± 0.063 |
| VNNRDSEKGFSKEQIHG [YCS4] | – | 3.49 ± 0.18 | – | – |
| LYQIDYLGTKVELPYGA [PRE1] | 1.72 ± 0.089 | 1.81 ± 0.079 | 1.62 ± 0.099 | 2.23 ± 0.073 |
| VESQFSAGRLYACISSR [RPS8A] | 2.08 ± 0.11 | 2.65 ± 0.097 | 1.99 ± 0.14 | 2.55 ± 0.14 |
| NPYNTRSNKIKVVKTPG [RPL34A] | 1.98 ± 0.065 | 1.93 ± 0.045 | 2.16 ± 0.08 | 2.15 ± 0.039 |
| FNYVAVGDVSNLPYLDE [QCR2] | 3.2 ± 0.095 | 3.14 ± 0.11 | 2.98 ± 0.13 | 3.11 ± 0.06 |
| TFVYILEKLIFDMTNHY [SRB8] | 1.71 ± 0.061 | 1.93 ± 0.042 | 1.69 ± 0.1 | 1.69 ± 0.039 |
| SGVPRLKEILNVAKNMK [RPO21] | 1.23 ± 0.12 | 1.83 ± 0.12 | 1.32 ± 0.26 | 1.4 ± 0.082 |
| RVIVAGTLDINPDDDYG [FAS1] | 2.38 ± 0.069 | 2.87 ± 0.073 | 2.85 ± 0.06 | 2.51 ± 0.058 |
| NYDTCGGESAYFFQLQI [RPC11] | 2.72 ± 0.2 | 2.75 ± 0.15 | 2.04 ± 0.14 | 2.94 ± 0.14 |
| SKLNELKKELKLLAKEL [SMC2] | 2.92 ± 0.11 | 2.9 ± 0.12 | – | 3.09 ± 0.15 |

| Sequence | protein stability index (doa10∆) | protein stability index (pdr5∆) | protein stability index (san1∆) | protein stability index (ubr1∆) |
| --- | --- | --- | --- | --- |
| LRGSLLSRKPSDNKKRS [RPC82] | 2.96 ± 0.13 | 3.6 ± 0.14 | 3.27 ± 0.1 | 3.01 ± 0.13 |
| IGGSDAAFEKRYRVDLL [RPO21] | 3.32 ± 0.074 | 3.39 ± 0.067 | 3.25 ± 0.04 | 3.32 ± 0.053 |
| LENQKDLVIVDENELKK [MTW1] | 3.65 ± 0.23 | – | – | – |
| PYLLPYILEAEAAAKEK [QCR7] | 1.39 ± 0.07 | 1.26 ± 0.062 | 1.5 ± 0.11 | 1.19 ± 0.053 |
| LLPTIKRTICKKCHRLL [RPR2] | 2.32 ± 0.065 | 2.36 ± 0.054 | 2.26 ± 0.11 | 2.34 ± 0.034 |
| ATTGGGLFGNKPNNTAN [YGL172W/NUP49] | 3.62 ± 0.25 | 3.29 ± 0.21 | 3.66 ± 0.083 | 3.54 ± 0.18 |
| IEWAEHHRDSNFPDEDD [SKP1] | 3.1 ± 0.065 | 3.17 ± 0.059 | 3.08 ± 0.046 | 3.33 ± 0.057 |
| LDGDRADKRGVLTGGYL [SMC3] | 2.93 ± 0.2 | 3.03 ± 0.23 | – | 3.07 ± 0.2 |
| AAFKDIAKRQFKEILTV [RRP40] | 2.27 ± 0.051 | 2.54 ± 0.062 | 2.58 ± 0.062 | 2.55 ± 0.05 |
| NIVNDFTPEEEAAIRRE [SKP1] | 2.28 ± 0.14 | 2.73 ± 0.079 | 3.08 ± 0.13 | 3.02 ± 0.086 |
| QPDENTKEMDEVEEDDE [SWI3] | 3.22 ± 0.17 | 3.49 ± 0.15 | 3.53 ± 0.092 | 3.43 ± 0.054 |
| AGFTHKLSNWLFGWNDL [YDL088C/ASM4] | 2.69 ± 0.065 | 3.06 ± 0.059 | 2.9 ± 0.063 | 2.93 ± 0.037 |
| KKISRLPKFLTVQYVRF [UBP6] | 1.65 ± 0.043 | 1.44 ± 0.041 | 1.28 ± 0.08 | 1.36 ± 0.035 |
| RDVSDDVFDTLATYCPR [GRR1] | 3.02 ± 0.084 | 3.04 ± 0.071 | 3.05 ± 0.056 | 3.22 ± 0.06 |
| DKNSGVKSEVDVQVDAE [ITC1] | 2.1 ± 0.064 | 2.15 ± 0.073 | 1.79 ± 0.12 | 2.97 ± 0.065 |
| GVHDGEVEPALLLLQDY [RPN1] | 3.13 ± 0.2 | 3.46 ± 0.17 | – | 2.44 ± 0.24 |
| APGTEAGIVPVSANTPK [SWI1] | 3.06 ± 0.053 | 2.94 ± 0.065 | 3.08 ± 0.053 | 3.18 ± 0.054 |
| MKRADKFKDMGIRAPKG [RPT5] | 2.89 ± 0.1 | 3.38 ± 0.16 | 2.98 ± 0.13 | 3.3 ± 0.12 |
| STELNNKQYELFMKSLI [SWI1] | 3.03 ± 0.075 | 2.94 ± 0.058 | 3.16 ± 0.039 | 2.74 ± 0.048 |
| FKVQIIELLSYLVEAPW [YML103C/NUP188] | 1.71 ± 0.091 | 2.03 ± 0.12 | 1.69 ± 0.21 | 2.26 ± 0.14 |
| YTEQFQHYKNNSISSQP [SSN2] | 2.76 ± 0.14 | 2.95 ± 0.11 | 3.09 ± 0.15 | 2.98 ± 0.1 |
| SEIWDVSRGQSAVLLET [PRP8] | 2.83 ± 0.16 | 2.65 ± 0.15 | 3.12 ± 0.26 | 2.04 ± 0.091 |
| QVGDGLEILIVTKDGVR [PRE7] | 2.64 ± 0.054 | 2.6 ± 0.049 | 2.92 ± 0.053 | 2.76 ± 0.052 |
| EARFWHLVELLLVFRNA [YDL116W/NUP84] | 2.69 ± 0.079 | 2.1 ± 0.065 | 2.06 ± 0.085 | 2.02 ± 0.064 |
| QFLEQGLSIHPTQITQY [SRP68] | 2.17 ± 0.058 | 2.22 ± 0.076 | 2.27 ± 0.062 | 2.17 ± 0.067 |
| EKRYDDKLLDFIRYDVK [CSN12] | 3.3 ± 0.063 | 3.25 ± 0.066 | 3.22 ± 0.046 | 3.17 ± 0.066 |
